From patent US20160031972A1 (XIAMEN INNOVAX BIOTECH, published 2016)

What was measured:
[1] = biological target: T1, RSV F protein on Hep2 cells infected with RSV-A2 (immunofluorescent assay) (respiratory syncytial virus A2 strain, UniProt P03420 26-574); assay: immunofluorescence on RSV-A2-infected Hep2 cells, confocal microscopy
T1 construct: whole, on cells

[2] = biological target: T2, post-F protein (RSV-A2 F protein with P102A, I379V, M447V and fusion peptide positions 137-146 removed, … (respiratory syncytial virus, RSV-A2, UniProt P03420 26-524)); assay: hybridoma screening, RSV-post F enzyme-linked immunosorbent assay
T2 construct: Signal peptide, furin processing and the residue of the HRV 3C site left after cleavage are not described; also called RSV-post F; post-fusion F

[3] = biological target: T3, RSV F protein in RSV-A2 virus preparation (Western Blot sample) (respiratory syncytial virus A2 strain, UniProt P03420 26-574); assay: Western Blot, non-boiled sample
T3 construct: Loaded boiled (denatured) or non-boiled (non-denatured); also called RSV A2 strain

B1: monoclonal antibody 5C4 (antibody, V domains shown)
VH: EVQLQQSGAELVKPGASVKLSCTASGFNIKDTFFHWVKQRPEQGLEWIGRIDPADGHTKYDPKFQGKATITADTSSNTAFLQLSSLTSEDTAVYYCATTITAVVPTPYNAMDYWGQGTSVTVSS
VL: DIVLTQSPASLAVSLGQRTTISCRASESVDSFDNSFIHWYQQKPGQPPKLLIFLASSLESGVPARFSGSGSRTDFTLTIDPVEADDAATYYCQQSNEDPFTFGSGTKLEIKR
notes: Mouse hybridoma antibody purified from ascites; kappa light chain; also called 5C4 monoclonal antibody; 5C4 antibody
[1]
  binding result: binds
[2]
  binding result: no binding
[3]
  binding result: binds
